Test results as given in article PMC2691592, “Caenorhabditis elegans Protein Arginine Methyltransferase PRMT-5 Negatively Regulates DNA Damage-Induced Apoptosis” (PLoS Genetics, 2009).

Biological target: T1, PRMT-5His6 (C. elegans, UniProt P46580 1-734)
T1 construct: C. elegans protein arginine methyltransferase PRMT-5, open reading frame C34E10.5, a protein of 734 amino acids; cDNA of prmt-5 cloned into pET21a; also called purified PRMT-5His6 protein; recombinant PRMT-5
Assay: pull-down; GST-CEP-1 or GST immobilised on glutathione sepharose beads, incubated with purified PRMT-5His6 for more than 2 h; bound PRMT-5His6 detected by immunoblot with anti-PRMT-5 antibody
Details: both partners purified

T1 sequence (P46580 whole entry): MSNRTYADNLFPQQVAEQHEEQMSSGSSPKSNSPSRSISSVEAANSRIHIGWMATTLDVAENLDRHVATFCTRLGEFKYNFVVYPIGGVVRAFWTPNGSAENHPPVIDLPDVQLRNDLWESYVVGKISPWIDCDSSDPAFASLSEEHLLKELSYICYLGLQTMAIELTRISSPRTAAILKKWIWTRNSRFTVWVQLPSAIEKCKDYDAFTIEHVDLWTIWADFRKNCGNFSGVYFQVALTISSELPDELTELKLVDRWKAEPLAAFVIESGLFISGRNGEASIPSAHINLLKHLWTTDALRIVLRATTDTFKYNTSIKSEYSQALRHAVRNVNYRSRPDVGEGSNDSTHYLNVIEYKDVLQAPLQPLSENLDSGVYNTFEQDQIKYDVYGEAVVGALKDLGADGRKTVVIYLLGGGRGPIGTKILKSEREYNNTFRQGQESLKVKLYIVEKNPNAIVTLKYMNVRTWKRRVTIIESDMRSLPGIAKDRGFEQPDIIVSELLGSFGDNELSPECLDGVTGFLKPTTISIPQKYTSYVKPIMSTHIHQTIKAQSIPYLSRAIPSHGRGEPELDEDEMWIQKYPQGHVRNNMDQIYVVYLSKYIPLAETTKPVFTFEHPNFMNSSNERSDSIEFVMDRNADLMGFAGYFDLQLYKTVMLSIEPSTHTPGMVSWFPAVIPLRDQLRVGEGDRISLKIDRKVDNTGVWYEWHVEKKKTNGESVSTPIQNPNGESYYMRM

binding result: binds
B1: GST-CEP-1 (natural protein, C. elegans, UniProt Q20646 1-644, looked up)
chain: MEPDDSQLSDILKDARIPDSQDIGVNLTQNLSFDTVQKMIDGVFTPIFSQGTEDSLEKDILKTPGISTIYNGILGNGEETKKRTPKISDAFEPDLNTSGDVFDSDKSEDGLMNDESYLSNTTLSQVVLDSQKYEYLRVRTEEEQQLVIEKRARERFIRKSMKIAEETALSYENDGSRELSETMTQKVTQMDFTETNVPFDGNDESSNLAVRVQSDMNLNEDCEKWMEIDVLKQKVAKSSDMAFAISSEHEKYLWTKMGCLVPIQVKWKLDKRHFNSNLSLRIRFVKYDKKENVEYAIRNPRSDVMKCRSHTEREQHFPFDSFFYIRNSEHEFSYSAEKGSTFTLIMYPGAVQANFDIIFMCQEKCLDLDDRRKTMCLAVFLDDENGNEILHAYIKQVRIVAYPRRDWKNFCEREDAKQKDFRFPELPAYKKASLESINIKQEVNLENMFNVTNTTAQMEPSTSYSSPSNSNNRKRFLNECDSPNNDYTMMHRTPPVTGYASRLHGCVPPIETEHENCQSPSMKRSRCTNYSFRTLTLSTAEYTKVVEFLAREAKVPRYTWVPTQVVSHILPTEGLERFLTAIKAGHDSVLFNANGIYTMGDMIREFEKHNDIFERIGIDSSKLSKYYEAFLSFYRIQEAMKLPK
notes: C. elegans p53 homolog CEP-1; called the full-length GST-CEP-1 fusion protein; pGEX vectors put GST at the N-terminus; also called GST-CEP-1 fusion protein; full-length GST-CEP-1
